Experimental findings from patent publication US20240261333A1, “NOVEL TARGETS FOR ENHANCING ANTI-TUMOR IMMUNITY” (THE BROAD INSTITUTE, INC., priority 2021, published 2024) are described below.

The target in the test is T1, B3GNT2 (Homo sapiens, UniProt Q9NY97).
T1 construct: The respective ORFs of candidate genes [CD274 (NM_014143), MCL1 (NM_021960), JUNB (NM_002229), and B3GNT2 (NM_006577)] were synthesized; expressed in transfected cells; host or cells: A375 melanoma cells (lentiviral ORF overexpression)
T1 sequence (Q9NY97 1-397): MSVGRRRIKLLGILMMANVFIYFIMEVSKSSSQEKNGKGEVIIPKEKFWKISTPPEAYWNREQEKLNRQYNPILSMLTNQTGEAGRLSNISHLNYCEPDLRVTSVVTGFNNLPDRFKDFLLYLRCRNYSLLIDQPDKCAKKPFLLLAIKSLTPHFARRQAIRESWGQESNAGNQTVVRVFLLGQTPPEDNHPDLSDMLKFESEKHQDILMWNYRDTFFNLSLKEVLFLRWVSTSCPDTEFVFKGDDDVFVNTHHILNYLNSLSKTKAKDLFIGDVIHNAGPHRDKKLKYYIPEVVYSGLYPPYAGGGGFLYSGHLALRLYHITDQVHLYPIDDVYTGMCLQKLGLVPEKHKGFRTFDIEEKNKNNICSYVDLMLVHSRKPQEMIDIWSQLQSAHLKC
The test is described as follows: Co-IP of FLAG-tagged B3GNT2 followed by mass spectrometry. It counts as cell-based. More on the design: C-term IgG / C-term flag: unit not given here. An outline of the steps: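 FLAG-tagged B3GNT2 immunoprecipitated from cell lysate (HEPES, 1% Triton X-100, 150 mM NaCl) with anti-FLAG versus […], overnight at 4° C, then captured on Protein A/G magnetic beads for 4 h. Two biological replicates per condition. Peptides fractionated and analyzed by nano-LC on an Orbitrap Elite in data-dependent mode.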

The mark [1] stands for this setting: Co-IP followed by mass spectrometry of B3GNT2, C-term tag, FLAG pull-down.
The mark [2] stands for this setting: Co-IP followed by mass spectrometry of B3GNT2, C-term tag, IgG pull-down.
The mark [3] stands for this setting: Co-IP followed by mass spectrometry of B3GNT2, N-term tag, FLAG pull-down.
[4] abbreviates: Co-IP followed by mass spectrometry of B3GNT2, N-term tag, IgG pull-down.

B1: EIF5B (protein)
chain: MGKKQKNKSEDSTKDDIDLDALAAEIEGAGAAKEQEPQKSKGKKKKEKKKQDFDEDDILKELEELSLEAQGIKADRETVAVKPTENNEEEFTSKDKKKKGQKGKKQSFDDNDSEELEDKDSKSKKTAKPKVEMYSGSDDDDDFNKLPKKAKGKAQKSNKKWDGSEEDEDNSKKIKERSRINSSGESGDESDEFLQSRKGQKKNQKNKPGPNIESGNEDDDASFKIKTVAQKKAEKKERERKKRDEEKAKLRKLKEKEELETGKKDQSKQKESQRKFEEETVKSKVTVDTGVIPASEEKAETPTAAEDDNEGDKKKKDKKKKKGEKEEKEKEKKKGPSKATVKAMQEALAKLKEEEERQKREEEERIKRLEELEAKRKEEERLEQEKRERKKQKEKERKERLKKEGKLLTKSQREARARAEATLKLLQAQGVEVPSKDSLPKKRPIYEDKKRKKIPQQLESKEVSESMELCAAVEVMEQGVPEKEETPPPVEPEEEEDTEDAGLDDWEAMASDEETEKVEGNKVHIEVKENPEEEEEEEEEEEEDEESEEEEEEEGESEGSEGDEEDEKVSDEKDSGKTLDKKPSKEMSSDSEYDSDDDRTKEERAYDKAKRRIEKRRLEHSKNVNTEKLRAPIICVLGHVDTGKTKILDKLRHTHVQDGEAGGITQQIGATNVPLEAINEQTKMIKNFDRENVRIPGMLIIDTPGHESFSNLRNRGSSLCDIAILVVDIMHGLEPQTIESINLLKSKKCPFIVALNKIDRLYDWKKSPDSDVAATLKKQKKNTKDEFEERAKAIIVEFAQQGLNAALFYENKDPRTFVSLVPTSAHTGDGMGSLIYLLVELTQTMLSKRLAHCEELRAQVMEVKALPGMGTTIDVILINGRLKEGDTIIVPGVEGPIVTQIRGLLLPPPMKELRVKNQYEKHKEVEAAQGVKILGKDLEKTLAGLPLLVAYKEDEIPVLKDELIHELKQTLNAIKLEEKGVYVQASTLGSLEALLEFLKTSEVPYAGINIGPVHKKDVMKASVMLEHDPQYAVILAFDVRIERDAQEMADSLGVRIFSAEIIYHLFDAFTKYRQDYKKQKQEEFKHIAVFPCKIKILPQYIFNSRDPIVMGVTVEAGQVKQGTPMCVPSKNFVDIGIVTSIEINHKQVDVAKKGQEVCVKIEPIPGESPKMFGRHFEATDILVSKISRQSIDALKDWFRDEMQKSDWQLIVELKKVFEII
For B1, under setting [1], the C-term flag was determined as 3. Under setting [2], the “C-term IgG” value turned out to be 0. For the same molecule, the “N-term FLAG” value under setting [3] amounted to 0. The “N-term IgG” value under setting [4] came out at 0.

B2: PUM1 (protein)
chain: SVACVLKRKAVLWQDSFSPHLKHHPQEPANPNMPVVLTSGTGSQAQPQPAANQALAAGTHSSPVPGSIGVAGRSQDDAMVDYFFQRQHGEQLGGGGSGGGGYNNSKHRWPTGDNIHAEHQVRSMDELNHDFQALALEGRAMGEQLLPGKKFWETDESSKDGPKGIFLGDQWRDSAWGTSDHSVSQPIMVQRRPGQSFHVNSEVNSVLSPRSESGGLGVSMVEYVLSSSPGDSCLRKGGFGPRDADSDENDKGEKKNKGTFDGDKLGDLKEEGDVMDKTNGLPVQNGIDADVKDFSRTPGNCQNSANEVDLLGPNQNGSEGLAQLTSTNGAKPVEDFSNMESQSVPLDPMEHVGMEPLQFDYSGTQVPVDSAAATVGLFDYNSQQQLFQRPNALAVQQLTAAQQQQYALAAAHQPHIGLAPAAFVPNPYIISAAPPGTDPYTAGLAAAATLGPAVVPHQYYGVTPWGVYPASLFQQQAAAAAAATNSANQQTTPQAQQGQQQVLRGGASQRPLTPNQNQQGQQTDPLVAAAAVNSALAFGQGLAAGMPGYPVLAPAAYYDQTGALVVNAGARNGLGAPVRLVAPAPVIISSSAAQAAVAAAAASANGAAGGLAGTTNGPFRPLGTQQPQPQPQQQPNNNLASSSFYGNNSLNSNSQSSSLFSQGSAQPANTSLGFGSSSSLGATLGSALGGFGTAVANSNTGSGSRRDSLTGSSDLYKRTSSSLTPIGHSFYNGLSFSSSPGPVGMPLPSQGPGHSQTPPPSLSSHGSSSSLNLGGLTNGSGRYISAAPGAEAKYRSASSASSLFSPSSTLFSSSRLRYGMSDVMPSGRSRLLEDFRNNRYPNLQLREIAGHIMEFSQDQHGSRFIQLKLERATPAERQLVFNEILQAAYQLMVDVFGNYVIQKFFEFGSLEQKLALAERIRGHVLSLALQMYGCRVIQKALEFIPSDQQVINEMVRELDGHVLKCVKDQNGNHVVQKCIECVQPQSLQFIIDAFKGQVFALSTHPYGCRVIQRILEHCLPDQTLPILEELHQHTEQLVQDQYGNYVIQHVLEHGRPEDKSKIVAEIRGNVLVLSQHKFASNVVEKCVTHASRTERAVLIDEVCTMNDGPHSALYTMMKDQYANYVVQKMIDVAEPGQRKIVMHKIRPHIATLRKYTYGKHILAKLEKYYMKNGVDLGPICGPPNGII
Under setting [1], B2 showed a C-term flag of 3. In addition, under setting [2], the “C-term IgG” value is recorded as 0. The “N-term FLAG” value under setting [3] was found to be 0. For the same molecule, the “N-term IgG” value under setting [4] is listed as 0.

B3: UBAP2L (protein)
chain: MMTSVGTNRARGNWEQPQNQNQTQHKQRPQATAEQIRLAQMISDHNDADFEEKVKQLIDITGKNQDECVIALHDCNGDVNRAINVLLEGNPDTHSWEMVGKKKGVSGQKDGGQTESNEEGKENRDRDRDYSRRRGGPPRRGRGASRGREFRGQENGLDGTKSGGPSGRGTERGRRGRGRGRGGSGRRGGRFSAQGMGTFNPADYAEPANTDDNYGNSSGNTWNNTGHFEPDDGTSAWRTATEEWGTEDWNEDLSETKIFTASNVSSVPLPAENVTITAGQRIDLAVLLGKTPSTMENDSSNLDPSQAPSLAQPLVFSNSKQTAISQPASGNTFSHHSMVSMLGKGFGDVGEAKGGSTTGSQFLEQFKTAQALAQLAAQHSQSGSTTTSSWDMGSTTQSPSLVQYDLKNPSDSAVHSPFTKRQAFTPSSTMMEVFLQEKSPAVATSTAAPPPPSSPLPSKSTSAPQMSPGSSDNQSSSPQPAQQKLKQQKKKASLTSKIPALAVEMPGSADISGLNLQFGALQFGSEPVLSDYESTPTTSASSSQAPSSLYTSTASESSSTISSNQSQESGYQSGPIQSTTYTSQNNAQGPLYEQRSTQTRRYPSSISSSPQKDLTQAKNGFSSVQATQLQTTQSVEGATGSAVKSDSPSTSSIPPLNETVSAASLLTTTNQHSSSLGGLSHSEEIPNTTTTQHSSTLSTQQNTLSSSTSSGRTSTSTLLHTSVESEANLHSSSSTFSTTSSTVSAPPPVVSVSSSLNSGSSLGLSLGSNSTVTASTRSSVATTSGKAPPNLPPGVPPLLPNPYIMAPGLLHAYPPQVYGYDDLQMLQTRFPLDYYSIPFPTPTTPLTGRDGSLASNPYSGDLTKFGRGDASSPAPATTLAQPQQNQTQTHHTTQQTFLNPALPPGYSYTSLPYYTGVPGLPSTFQYGPAVFPVAPTSSKQHGVNVSVNASATPFQQPSGYGSHGYNTGVSVTSSNTGVPDISGSVYSKTQQSFEKQGFHSGTPAASFNLPSALGSGGPINPATAAAYPPAPFMHILTPHQQPHSQILHHHLQQDGQTGSGQRSQTSSIPQKPQTNKSAYNSYSWGAN
For B3, the C-term flag under setting [1] is 19. Further, the “C-term IgG” value under setting [2] worked out at 15. Besides, under setting [3], the “N-term FLAG” value was 20. The “N-term IgG” value under setting [4] is 20.

B4: RBM39 (protein)
chain: ADDIDIEAMLEAPYKKDENKLSSANGHEERSKKRKKSKSRSRSHERKRSKSKERKRSRDRERKKSKSRERKRSRSKERRRSRSRSRDRRFRGRYRSPYRRRSRSKSPFRKDKSPVREPIDNLTPEERDARTVFCMQLAARIRPRDLEEFFSTVGKVRDVRMISDRNSRRSKGIAYVEFVDVSSVPLAIGLTGQRVLGVPIIVQASQAEKNRAAAMANNLQKGSAGPMRLYVGSLHFNITEDMLRGIFEPFGRIESIQLMMDSETGRSKGYGFITFSDSECAKKALEQLNGFELAGRPMKVGHVTERTDASSASSFLDSDELERTGIDLGTTGRLQLMARLAEGTGLQIPPAAQQALQMSGSLAFGAVAEFSFVIDLQTRLSQQTEASALAAAASVQPLATQCFQLSNMFNPQTEEEVGWDTEIKDDVIEECNKHGGVIHIYVDKNSAQGNVYVKCPSIAAAIAAVNALHGRWFAGKMITAAYVPLPTYHNLFPDSMTATQLLVPSRR
B4 came in with a C-term flag under setting [1] of 5. Also, the “C-term IgG” value under setting [2] amounted to 3. Further, the “N-term FLAG” value under setting [3] stood at 4. For the same molecule, under setting [4], the “N-term IgG” value is 5.

B5: DDOST (protein)
chain: SGPRTLVLLDNLNVRETHSLFFRSLKDRGFELTFKTADDPSLSLIKYGEFLYDNLIIFSPSVEDFGGNINVETISAFIDGGGSVLVAASSDIGDPLRELGSECGIEFDEEKTAVIDHHNYDISDLGQHTLIVADTENLLKAPTIVGKSSLNPILFRGVGMVADPDNPLVLDILTGSSTSYSFFPDKPITQYPHAVGKNTLLIAGLQARNNARVIFSGSLDFFSDSFFNSAVQKAAPGSQRYSQTGNYELAVALSRWVFKEEGVLRVGPVSHHRVGETAPPNAYTVTDLVEYSIVIQQLSNGKWVPFDGDDIQLEFVRIDPFVRTFLKKKGGKYSVQFKLPDVYGVFQFKVDYNRLGYTHLYSSTQVSVRPLQHTQYERFIPSAYPYYASAFSMMLGLFIFSIVFLHMKEKEKSD
With B5, for the setting “Co-IP with FLAG antibody, C-terminally FLAG-tagged B3GNT2, mass spectrometry count, unit not given”, the C-term flag was 3. Moreover, the “N-term FLAG” value (Co-IP with FLAG antibody, N-terminally FLAG-tagged B3GNT2, mass spectrometry count, unit not given) is given as 0. In addition, the “C-term IgG” value (Co-IP with IgG control antibody, C-terminally FLAG-tagged B3GNT2, mass spectrometry count, unit not given) amounted to 0. Moreover, the “N-term IgG” value (Co-IP with IgG control antibody, N-terminally FLAG-tagged B3GNT2, mass spectrometry count, unit not given) is listed as 0.
